Data published in a protein production outcome set (Wang et al. 2014).

Assay: label from the status in PepcDB records
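Also: failed if final PepcDB status was selected cloned or expressed and not failed if soluble or beyond.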

Sequence	protein production
MTEMQSLRHRLIRQPGPVSGECWIAFFDGVAHPVLIKNAQGQVIFANRAACDLLGRDRSGLAGGAEHELVAGTQAEQIASFDAEAMRRGSVSAEQEMPGPRGVRRFLVSRRPAGEHLVVTFFEITDLRETEGVLRQREAHLRNLLELHPVAPFSFTADGVLSDLSDRLVAITGLPAGTRHVDAWWAAMHPCDRRDLRRAWIRSVRGGQSFDAEHRLQMPDGAYRWFRARIVARPRDQDQRVDRWFGIIEDVHERRTTVEQLRESEARFRAFADDAPVMIWVTDTEGRNVFVSRSWLGATGQSLDEALGTGWIDAVHPDDRDATAAITREAMRRRIAYTNEFRIRRKDGGWCWVIDVGHPRLLADGTFIGYIGCCVDISARRQAEDDRVMAQLQVFHMARHDMLTGLPNRHYFGDCYQEAVASLAPERSVAVLMLDLDGFKTVNDTRGHPVGDQVLCEVANRLRTSVRSTDTVARLGGDEFAVIQTPIRSEQEACDLARRLIAAISKPFDLEGAVPEVGASVGIAFARGHGDSAEEIMRYADVALYAAKQAGRGTFRVFDEATDTHLQSRQKMKAALRAALGLGELSVFYQPLIGLRDGQVTACEALMRWHRKGAGWITPDQFIPLAEEAGLIGDMGDWVLHEACAQAARWPDSVSVAVNLSPLQFHGGALVDQVASALRASGLPPERLQLEITESVLLDPTDRNIGVLQDLRALGAKIVMDDFGTGYSSLGYLRSFPFDKIKVDRSFIRDLPDAREALAILKAVAGLGRSLDMRTTVEGVETQAQLDCAIAEGVDEAQGYFFSRPLPAPGIASFISGCLPKRRIQPATGDAAT	failed
DYIEMKVPAQPEYVGIIRLTLSGVASRMGYTYDEIEDLKIAVSEACTNAVQHAYKEDKNGEVSIRFGVFEDRLEVIVADEGDSFDFDQKQQDLGPYTPSHTVDQLSEGGLGLYLMETLMDEVRVQNHSGVTVAMTKYLNGERVDHDTT	failed
MNVSHISAVSYYFARYIQEVLEVPVGIVVSTWGGSKIEAWMSRESIKPFSSIDLSILDNDAEVKNPTATPCVLYNGKIAPLTNFAVRGFLWYQGESNRDNADLYQSLMPAFVADLRAKWGRGELPFYFVQIAPFDYEGADGTSAARLREVQLQNMKDIPNSGMVTTMDVGHPVFIHPVDKETVGNRLAYWALAQTYGMKGFGYAPPVYKSMEIQENKIYINFYNAQRGLSPMWTSLKGFEIAGEDKVFYPAFAEIETTTARLAVSSDKVSHPVAVRYAYKNYVEASIFSIHGIPAAPFRTDNWLEHHHHHH	failed
MEIRMAAAADFAEIWPLFQAVISSGDTYVFTPDTPEQDAYDYWFGAGVRCWVAVHEGRVVGMYKLIDNQRGLGNHVANASFMVDGEARGLGIGKALGLHCIKQATDLGYRAIQFNFVVSTNTLAVALWQKLGFEIIATLPGAFNHSQLGYVDAYVMHRALLPN	failed
MQTFAPGTRVYHLIIIVFFFFFCLSSFFASIVMADEYTGEATGSSEAKVHIIYTEKPTDEEPKTYHLRTLSSALGSEEAAKDALIYSYKEAASGFSAKLTPEQVAEISKQPGVIQVVPSQTYQLHKPGGGGGFKLT	failed
MVKNGRDPPERNFYCTEKEETAPPLMNIFDDFKSQIEREIMTIFLKTAYESLLSIAISTEIIVPEDETRSLEKEVIKLMKLMKLMNLLEPLGNRVSRLMGLVRNAEEHRERIVKRNQESDVREIFKIAASRTKTRFHKALQKESSSSSMKWGFTEAKDEVLSLGIRLTHALIKLTLLRVKKNDREKQLLLRDWIFDESYEKQSALMYLLDYLLYKAEEFAASVVVEESGNDHHRQHILEEDRIGDDILTRISEAIFILQLLAMNLSRNVLTERDLIATNDQLLRCVRDVKFVESTIVVLMKGRSLKLKHKGKQSLLMKERTETIFWAKVNAELNKCWGESFWKYVEAARHLEAVVSSQQIVYTLCKLFVFGFES	failed
MINSGTLITKIEELQSTLAKMDIALGTVDEAIVWTDGTGQIQWCNTAFDHLMGKLHILILGKNLVELLPLHRNSQPLEVSHHPFTIIVATQQKFTDHYEFNQNGKWLHLEIMTSPLMNAQGAVLVIRDISDRHLQEQTLQQLNENLEKRVLERTQAVSLIN	failed
MIGSTSDGLVPGNTDMPATPTTALTALRTPHPPTGGESMHPRTRTAPALLFAVCLTALAAYPAAADDPVPTTERVSVTLDGAQIDDPSYRPQLTSKGGVVYTSDGPVWSTDHNGVSDAYRNSERVSYNMGAARSYDPSACHTARMIAFVSDRTPAGGTTPSVYVRNTPVGKLSYASHGYQGVPFTWAGQPAMSADCQWMAFSATLPATPDHVEQPRVYRYRIYDGTIEQVSPDSADGSRAAVRPSISADGRYVAYQSSIPHPGGPANDSDIYVRDLETGTLEKASVGRHGRPADRASTGPSLSADGRHVAFDSYASNLAPGDTNGTVNVFVRDLDAGTTRLVKGAGRHAYTAEAALSGDGLHLAYVSAGIRGSRGVPAVYLRDLATGRTRLISVDTRGHRNDRAAGNPSVNPDGTAVAFDSASPDLVPGDTNGTVDVFLRRLGSPEALEHHHHHH	not failed
MEKDDSNDGSIIGGNGITAGKDVFLHNIKAPVNIGNTNNTNQNYTTYIISENIEEHTKSLIDFAQFCENKREYEKALDYYEQARVKLEKSESKILLVKVMMGEAVCHHKKGNLSRAKNLIFEAERLDPKNPTVLANIASQLKSENPDEAEIYAKKALEFDKNNFLAKCVIGLLEYDKGNIKDSLRTLKQASTINPNVGYPFNCMARIYSSEKDYGNAIKYGKKAVKIESDNAIFLMELAIDYMNIAFPENEVCISSDFSKMLKMEYLEKALKCLEKAKEMSESQGNNYLNCEIYTYLSRVHLAKGEFNKSIEYCEMIINSGLDTIDIYIILGEAYGECQNYDKVIEYYELLLKRENLTENHLFIVKANLATSYFYKNRLNEAEKLFKELIDENPENINLCIQMSNVLEENGKIEKAFSLLEKIDKFSQKPWDFYYMMGRLYHKKDDYESSVKYLKEAISKNSEAIPPRIYLINLYLECGMHKYAVKQAIELIQLAPTGINFYKLASLYYEIGDYKESAVFSRKALEADYGKVETYRLLCSSLLEANKLSEAKDEFENAFTKYPDDLELKLNYSATLSALEYTEKAIEILTQIISNDPNVVFAYKALARIYYKEASYEIALEYSKKAVFIEPEDEDAHFVMGCSLLNLGKNDEAVEEIQKVIEINPNFDSAWLIDAEKGMEYLGNLITISNHIIERYENGNITISKVGELLIKDTFDLLCHINNVKVAESLSLSDEKIDQLRNSPISKRDVLVDETMLGILAKTGSLDLLRLAFDHVYVIKELEDKIVIGPYLKDHPYRDVKNKLQIIDGGWIESLNPNDMIALATKKIVVENKFSKNDISFIALALDKDFLCLTEDLLLRIQLESINKPTCGIFGFVNYAVSKNIIKQDDAEKIFTKVKSVCIVE	failed
IKKNVFNIFYLFLVLEELKGPVLYIVGTPIGNLEDITYRAIDVLKSVNVIFAEDTRVTSKLLSRYKINKKMISCNAVTENKKISLLLDYLAKGNSVAFVSDAGTPGLSDPGSLLVAAAFREGYKVCPIPGV	failed
MAKYKVGMVSLGCDKNRVDSEIMLGMVQNEYELTNNPKEADIIIVNTCGFIEKAKQESINTILDMAKYKTSHNCKLLIATGCLTQRYGDELLELMPEIDIMLGVNDYAKINEAIMNFINGNNEKVKATNYSDVSINEGLRLITTDKATAYLRIAEGCDNFCTYCIIPKIRGKFRSRALESIVEEAKKLAENGVKELILIAQDTTNYGIDIYGEKKLHLVLRELAKIEGIEWIRVLYCYPEAIYDELIKEISVNDKVCNYLDLPIQHISNNVLKRMGRKTTKEEIIGKINDLRKNVPNIVLRTSLIVGFPGESCEDFNELKDFIKTIKLDKVGVFTYSREEGTPAAIMEDQIDEEVKKAREEEIMLLQKEVSEEINKNKVGREYDVLIEKFNGEYYIGRSYEMAPDIDGCIYVKGNGAKKDQFCKVKIEKALEYDLVGVVCNESCKLEHHHHHH	failed
MTRSVWLKADSEVGDWETRKRRITAGIEAGVDWVLVDEEDVDRVSELGEINIAAFTNGDVHVMEAEAEDSEADATIVGKDGEGDGTVDLPSDFSGSADLSTLRQNGAAPDGGYVRIFDEDYEAFAEAVAAEADFTIVIGENWQIIPLENLIARVGEETDLIAGVRTAEDARTAYETLELGADGVLLDTDEVDEIRKTVEVRDEMGRESLDLEYAEVTAIEQTGSADRVCIDTGSLMEHDEGMLVGSMARGLFFVHAETAESPYVASRPFRVNAGAVHAYVRTPDGGTKYLSELQSGDEVQIVDANGRTREAIVGRAKIEKRPMFRVQAETEDSDRIETLLQNAETIKVHTQDGRTAVTDLEPGDEILIHHEDTATHFGERIEESIIEK	failed
MNEDGNDTPRPLGEVPEFRRIRSGPLPPHQNIPPRRRAPADQLPWLPSAAARRRRAALLLCGFLSAVVLLVSGSSWAVTGWLSDQLHRYDVFTGLLDENRPPASQGALNFLVIGSDDRSGLDSRQRSELGVGNVEGRRSDTMMLVHLNHQREHITVVGIPRDSWVRIPGHGPDKINAAYSLGGPQLAVQTVEAATGVRIDHYVEIDFTGFVEVVDTLGGITVCLPEAIHDEKAHLSLEAGTHRLQGTQALAFARTRKSPHGDLDRIDRQQQVLAALLDEALNAQILSDPARLAQFVETALGSITVDDTLDTAALIQLGTQLRSLGLDDVTFTQVPVDRIDFWTPSGEVAVTWHEQHATELFTAIAADRPIPQPQSAEDSALPSPDEVTVEVYNGTTIPGLGAQVRVELLESGFQVPESAGNWPQQDLAETLVRYSPEREDAATLLVESIPGARAEVDPGLGGRVQVIAGVNHTGVAVPAHAASPIAEQPVDVGGRETVHTRTAAENVCR	failed
MSLNTSIYGLIGEKLGHSHSSYIHKLIFEKVGIKGIYNLFEVPKEKLKESVDTFKIIKCGGLNVTIPYKVEVMKELYEISEKARKIGAVNTLKFSREGISGFNTDYIGFGKMLSKFRVEIKNNICVVLGSGGAARAVLQYLKDNFAKDIYVVTRNPEKTSEIYGEFKVISYDELSNLKGDVIINCTPKGMYPKEGESPVDKEVVAKFSSAVDLIYNPVETLFLKYARESGVKAVNGLYMLVSQAAASEEIWNDISIDEIIVDEIFEVLEEKIKSEGHHHHHH	not failed
MATKSSDSSHKQSPPSFRKSVEIKATHDQFFVWREFLWGGIAGAFGEGMMHPVDTLKTRLQSQIIMNATQRQKSILQMLRTVWVGDGLKGFYRGIAPGVTGSLATGATYFGFIESTKKWIEESHPSLAGHWAHFIAGAVGDTLGSFIYVPCEVIKQRMQIQGTSSSWSSYISRNSVPVQPRGDMYGYYTGMFQAGCSIWKEQGPKGLYAGYWSTLARDVPFAGLMVVFYEGLKDLTDQGKKKFPQYGVNSSIEGLVLGGLAGGLSAYLTTPLDVVKTRLQVQGSTIKYASYKGWLDAVGQIWRKEGPQGFFRGSVPRVMWYLPASALTFMAVEFLRDNFREKSNNNNNVVSNLSIERKTSSTSVHEG	failed
MKKFFKLKENKTTVRTEVLAGITTFFAMSYILFVNPSILSQTGMPSQGVFLATIIGSIAGTLMMGLYANIPYAMAPGMGLNAFFTYTVVFSLGYTWQEALAMVFICGIISIVITLTRVRRMIIDEIPDSLKKAISAGIGIFLTYIGLKNAGLLNFAIDPGTYSVSGKGAAKGLASITANSSATPSLVNFNNPAVLVAVIGIIITAFFIIKNIKGGVILSIIVTTVIALLAGVVDLSKIDFSANNPVAAVKDLGTIFGAALGNKGLGALFSDAGRIPEVLMTILAFALTDIFDNVGTLIGTGAKAGIFDVTSESTSSGLQNKMDKALFSDMVGTTVGAVAGTSNVTTFVESAAGIGAGGRTGLTAVVVALLFAVSSFFSPLLAIVPTQATAAVLLIVGIMMLSSLKDIEWSDMSQAIPAFFATVFMGLAYSITQGIATGFLFYTFSKLIKKEAKDIHPIIWVLDVLFILNFISLAVL	failed
